Patent US20250011363A1, “OPTIMIZED SHORTENED PEPTIDE THAT BINDS TO ACETYLCHOLINE RECEPTOR, AND USE THEREOF” (SKINMED CO., LTD., priority 2021, published 2025)

Target: acetylcholine receptor
Test: SPR, receptor on CM5 chip, peptide 10 µM

First: RKWICK [6mer-1-512]
Second: RRSLCK [6mer-1-529]
The Binding affinity (RU) of the first is higher: 154 RU for the first, 139 RU for the second.

First: KRSYTR [6mer-1-528]
Second: KKGRQK [6mer-1-524]
The Binding affinity (RU) of the first is lower: 139 RU for the first, 148 RU for the second.

First: KRWVLK [6mer-1-518]
Second: KRLVSK [6mer-1-530]
The Binding affinity (RU) of the first is higher: 153 RU for the first, 137 RU for the second.

Going from RKGQTK [6mer-1-531] to RRGLSR [6mer-1-515], the Binding affinity (RU) rises from 135 RU to 139 RU.

First: KKGIYR [6mer-1-527]
Second: KRRQCK [6mer-1-519]
The Binding affinity (RU) of the first is lower: 142 RU for the first, 147 RU for the second.

Going from KKGLCK [6mer-1-517] to KKSQLR [6mer-1-532], the Binding affinity (RU) falls from 139 RU to 121 RU.

KRRRSK [6mer-1-523] and KKRFSR [6mer-1-516] are the same in Binding affinity (RU): 139 RU for the first, 139 RU for the second.

First: RKQIRR [6mer-1-513]
Second: KKRLCR [6mer-1-534]
The Binding affinity (RU) of the first is higher: 154 RU for the first, 126 RU for the second.

Going from RKWFSR [6mer-1-533] to KRQIYK [6mer-1-520], the Binding affinity (RU) falls from 145 RU to 127 RU.

Going from RRQLRR [6mer-1-525] to RKVISR [6mer-1-521], the Binding affinity (RU) falls from 139 RU to 128 RU.

First: KKGRSK [6mer-1-514]
Second: RKRRLR [6mer-1-522]
The Binding affinity (RU) of the first is higher: 128 RU for the first, 126 RU for the second.

For KRGYTR [6mer-1-526], the Binding affinity (RU) was 148 RU.

Target: acetylcholine receptor
Test: SPR, AchR immobilized on CM5 chip, peptide 10 uM

Going from KKRIYR [6mer-1-346] to KRQIRR [6mer-1-363], the Binding affinity (RU) falls from 123 RU to 121 RU.

Going from KKQVLK [6mer-1-338] to KRLLCK [6mer-1-340], the Binding affinity (RU) rises from 127 RU to 142 RU.

First: RRGLRK [6mer-1-351]
Second: KKLLCR [6mer-1-345]
The Binding affinity (RU) of the first is lower: 141 RU for the first, 147 RU for the second.

Compared with KRLQLR [6mer-1-380], KRQFLR [6mer-1-359] is higher in Binding affinity (RU): 121 RU for the first, 131 RU for the second.

Compared with KRGYSK [6mer-1-356], KKSIQK [6mer-1-339] is lower in Binding affinity (RU): 153 RU for the first, 147 RU for the second.

Going from RKSRRR [6mer-1-337] to KRQYTR [6mer-1-382], the Binding affinity (RU) falls from 144 RU to 139 RU.

RKLRSK [6mer-1-372] and RRRFSK [6mer-1-368] are the same in Binding affinity (RU): 145 RU for the first, 145 RU for the second.

First: KRRISK [6mer-1-379]
Second: RKQLYK [6mer-1-370]
The Binding affinity (RU) of the first is higher: 153 RU for the first, 142 RU for the second.

Going from RKLFCK [6mer-1-389] to KKLQTK [6mer-1-350], the Binding affinity (RU) rises from 125 RU to 153 RU.

Compared with KRWFCR [6mer-1-366], KKLYTK [6mer-1-343] is higher in Binding affinity (RU): 133 RU for the first, 135 RU for the second.

First: RKVICK [6mer-1-384]
Second: KRLYLK [6mer-1-353]
The Binding affinity (RU) of the first is higher: 148 RU for the first, 126 RU for the second.

KRWITR [6mer-1-377] and RKVFYR [6mer-1-355] are the same in Binding affinity (RU): 148 RU for the first, 148 RU for the second.

First: RKRRTK [6mer-1-383]
Second: KRVVYK [6mer-1-362]
The Binding affinity (RU) of the first is higher: 148 RU for the first, 133 RU for the second.

KKVFLK [6mer-1-354] and KRSLQK [6mer-1-378] are the same in Binding affinity (RU): 153 RU for the first, 153 RU for the second.

First: KRSLTR [6mer-1-371]
Second: RKGFYR [6mer-1-381]
The Binding affinity (RU) of the first is higher: 153 RU for the first, 124 RU for the second.

Going from KRRYTR [6mer-1-358] to KRVVTK [6mer-1-336], the Binding affinity (RU) rises from 124 RU to 154 RU.

RRSQRR [6mer-1-335] and KKGRLR [6mer-1-387] are the same in Binding affinity (RU): 148 RU for the first, 148 RU for the second.

Going from RKVFRK [6mer-1-352] to RKSVQR [6mer-1-361], the Binding affinity (RU) falls from 142 RU to 127 RU.

First: KRVFLK [6mer-1-360]
Second: RRSYQK [6mer-1-386]
The Binding affinity (RU) of the first is higher: 148 RU for the first, 127 RU for the second.

Going from RRQLRK [6mer-1-376] to KKWYRK [6mer-1-369], the Binding affinity (RU) rises from 121 RU to 144 RU.

Compared with RRVFYR [6mer-1-375], RKRFCR [6mer-1-342] is lower in Binding affinity (RU): 154 RU for the first, 131 RU for the second.

Compared with RKQRLK [6mer-1-348], KRRQTR [6mer-1-357] is higher in Binding affinity (RU): 142 RU for the first, 148 RU for the second.

Going from RKQQQR [6mer-1-341] to KKQFQK [6mer-1-374], the Binding affinity (RU) rises from 128 RU to 148 RU.

Going from KKSQCR [6mer-1-344] to RRLLQR [6mer-1-388], the Binding affinity (RU) rises from 125 RU to 142 RU.

Going from KRQVLR [6mer-1-385] to RKRQSK [6mer-1-364], the Binding affinity (RU) falls from 127 RU to 124 RU.

Compared with KRGVLK [6mer-1-373], KKRICK [6mer-1-365] is lower in Binding affinity (RU): 149 RU for the first, 142 RU for the second.

First: KKQQSK [6mer-1-347]
Second: KRLYSK [6mer-1-349]
The Binding affinity (RU) of the first is higher: 126 RU for the first, 123 RU for the second.

RKGFSK [6mer-1-367] was tested, and the Binding affinity (RU) was 154 RU.
